One may read the Kd as the constant that tells how readily two partners part at equilibrium. Higher therefore signals a looser complex. Broadly, the EC50 is the concentration needed to bring the measured effect to its halfway point.

This is an account of results in patent publication US20110268740A1 (INTERCELL, published 2011).

Residue numbers refer to the chain shown, from its start.

B1: scFv-E040-msFcγ2c (Fc fusion)
chain: DADPAQAAELVMTQSPDSLAVSLGERATINCKSSQSVLYSSNNENYLAWYQQKPGQPPKLLIYWASTRESGVPDRFSGSGSGTDFTLTINSVQAEDVAVYYCQQYFMTPITFGQGTRLEIKGGSSRSSSSGGGGSGGGGEVQLLESGGALVQPGRSLRLSCRTSGLNFGDYPINWVRQAPGKGLEWVGFIKSKSYGVTTEFAASVEGRFTISRDDSRGIAYLQMNSLKTEDTAVYYCTSSSGFLYYFDYWGQGTLVTVSSASTKGPSVTSGQAGRKLEPRVPITQNPCPPLKECPPCAAPDLLGGPSVFIFPPKIKDVLMISLSPMVTCVVVDVSEDDPDVQISWFVNNVEVHTAQTQTHREDYNSTLRVVSALPIQHQDWMSGKEFKCKVNNRALPSPIEKTISKPRGPVRAPQVYVLPPPAEEMTKKEFSLTCMITGFLPAEIAVDWTSNGRTEQNYKNTATVLDSDGSYFMYSKLRVQKSTWERGSLFACSVVHEGLHNHLTTKTISRSLGK
B2: scFv-D005-msFcγ2c (Fc fusion)
chain: B1 chain with S40T, E44K, A48G, K59N, L144V
B3: scFv-F052-msFcγ2c (Fc fusion)
chain: B1 chain with L10R, S18A, V37L, E44K, Q52K, D84E, R117K, E140Q, L144Q

The target in one test is T1, M2e (SEQ ID NO:48) conjugated to RNAse A (Influenza A virus (consensus of H1, H2 …)).
Assay: not given
Molecule B1 came in with a Kd of 0.013 nM.

For the molecule B2, the dissociation constant (Kd) turned out to be 0.004 nM.

Regarding B3, the dissociation constant (Kd) was 0.006 nM.

The target of a further test is T1, M2e (SEQ ID NO:48) conjugated to RNAse A. As to the kind of experiment: ELISA, apparent affinity, purified scFv-msFcγ2c on immobilised RNAse A-M2e.
B1: the 50% effective concentration (EC50) was found to be 0.0883 nM.

In the case of B2, the concentration giving a half-maximal response (EC50) amounted to 0.0815 nM.

In the case of B3, the half-maximal effective concentration (EC50) worked out at 0.0506 nM.
